From PMC10053439

Target: GAD-SNX5, C-terminally truncated splice variant of SNX5 lacking the last 45 amino acids
Assay: yeast two-hybrid β-galactosidase liquid assay
Conditions: mean of four transformants with SD; parent: est. 190; read off a plot

response: 21 U
Substance: LexA-VPS13A(VAB), LexA DNA-binding domain fusion to the VAB domain of VPS13A (from UniProt Q96RL7) N2418S
